Values of other authors in article PMC7602216.

Molecular target: UBA5 UIS (Homo sapiens) (UniProt Q9GZZ9)
Experiment: ITC

Kd: 8 µM
Substance: UFM1 (from UniProt P61960)
